The record followed here is patent US20250177530A1 (UNIVERSITY OF PITTSBURGH OF THE COMMONWEALTH SYSTEM OF …, published 2025).

Positions count from the first letter of the chain named. Names and notes keep the numbering of the source.

For assay [1], the target named is T1, BSA (UniProt P02769 25-607).
T1 construct: Specificity control antigen in ELISA
The assay is described as follows: ELISA on BSA. For orientation: In an ELISA, binding on a coated surface is turned into a signal by an enzyme label.

In assay [2] the target is T2, recombinant human ENPP1 extracellular domain fused with a His6-FLAG tag (human).
T2 construct: Expressed in Expi293 cells and purified on nickel resin; It was coated at 50 ng/well in the ELISAs and captured in biotinylated form on streptavidin biosensors in BLItz; also called ENPP1-His; rhENPP1
T2 sequence (P22413 98-925, looked up): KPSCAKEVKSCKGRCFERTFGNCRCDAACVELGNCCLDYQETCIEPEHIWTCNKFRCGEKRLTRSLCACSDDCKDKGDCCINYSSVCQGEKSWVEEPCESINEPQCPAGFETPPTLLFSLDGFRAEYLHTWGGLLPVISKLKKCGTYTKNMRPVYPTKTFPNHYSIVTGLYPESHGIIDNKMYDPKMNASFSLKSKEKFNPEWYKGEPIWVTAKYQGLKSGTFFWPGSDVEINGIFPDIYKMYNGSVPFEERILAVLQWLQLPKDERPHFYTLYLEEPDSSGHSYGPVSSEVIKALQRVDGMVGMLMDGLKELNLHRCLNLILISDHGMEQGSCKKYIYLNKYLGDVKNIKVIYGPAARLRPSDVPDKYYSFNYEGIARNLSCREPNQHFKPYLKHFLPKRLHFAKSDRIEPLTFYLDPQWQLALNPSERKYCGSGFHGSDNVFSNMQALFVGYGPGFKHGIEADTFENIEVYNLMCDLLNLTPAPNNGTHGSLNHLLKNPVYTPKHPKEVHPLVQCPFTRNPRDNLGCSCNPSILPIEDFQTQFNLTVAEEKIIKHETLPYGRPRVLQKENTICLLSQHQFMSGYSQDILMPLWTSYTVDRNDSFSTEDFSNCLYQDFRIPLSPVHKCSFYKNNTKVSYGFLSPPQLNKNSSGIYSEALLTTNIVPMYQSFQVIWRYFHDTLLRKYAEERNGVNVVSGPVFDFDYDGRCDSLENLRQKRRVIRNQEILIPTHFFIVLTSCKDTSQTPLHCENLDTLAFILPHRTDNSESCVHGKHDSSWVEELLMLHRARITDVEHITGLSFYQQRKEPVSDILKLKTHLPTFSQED
The assay is described as follows: ELISA, ENPP1-His coated at 50 ng/well, anti-FLAG-HRP detection. As to the method: (§1) The binding and specificity of Fab, scFv, and IgG1 to ENPP1 were analyzed by ELISA. Briefly, ENPP1-His protein was coated at 50 ng/well at 4° C. overnight and blocked with 5% milk for 2 hours at room temperature. After three times washing with PBST, they were incubated with 3-fold serially diluted Fab, scFv, or IgG1 for 1 hour at 37° C. For Fab and scFv detection via the FLAG tag present at the C-terminus, further incubation was performed with anti-FLAG M2-peroxidase (HRP) antibody (A8592, Sigma-Aldrich, St. Louis, MO, USA) for another 1 hour. For the IgG1, HRP-conjugated goat anti-human IgG1 Fc (Sigma-Aldrich, St. Louis, MO, USA) was used for detection.

Assay [3] deals with T2, recombinant human ENPP1 extracellular …. The assay is described as follows: BLItz biolayer interferometry, biotinylated ENPP1 on streptavidin biosensor. As to the method:
(§2) The affinity and avidity of the anti-hENPP1 antibody were detected by biolayer interferometry BLItz (ForteBio, Menlo Park, CA, USA). Briefly, DPBS was used to establish a baseline for 30 seconds, and streptavidin biosensor (ForteBio) was coated with 16.7 μg/mL recombinant ENPP1-Biotin for 2 minutes. […] Antigen-coated biosensors with PBS served as a reference control. The dissociation was monitored in DPBS for 4 minutes.

Assay [4] has the same target. The assay is described as follows: BLItz biolayer interferometry, biotinylated ENPP1 on a streptavidin biosensor. As to the method: as §2
(Biolayer interferometry detects binding as a change in optical thickness at a sensor tip.)

Assay [5] has the same target. The assay can be described thus: ELISA, ENPP1-His coated at 50 ng/well, anti-human IgG1 Fc-HRP detection. As to the method: as §1
Assay [6] has the same target. The assay can be described thus: BLItz biolayer interferometry, biotinylated ENPP1 on streptavidin biosensor (avidity, bivalent IgG1). The protocol: as §2

T1 sequence (P02769 25-607 limits assumed): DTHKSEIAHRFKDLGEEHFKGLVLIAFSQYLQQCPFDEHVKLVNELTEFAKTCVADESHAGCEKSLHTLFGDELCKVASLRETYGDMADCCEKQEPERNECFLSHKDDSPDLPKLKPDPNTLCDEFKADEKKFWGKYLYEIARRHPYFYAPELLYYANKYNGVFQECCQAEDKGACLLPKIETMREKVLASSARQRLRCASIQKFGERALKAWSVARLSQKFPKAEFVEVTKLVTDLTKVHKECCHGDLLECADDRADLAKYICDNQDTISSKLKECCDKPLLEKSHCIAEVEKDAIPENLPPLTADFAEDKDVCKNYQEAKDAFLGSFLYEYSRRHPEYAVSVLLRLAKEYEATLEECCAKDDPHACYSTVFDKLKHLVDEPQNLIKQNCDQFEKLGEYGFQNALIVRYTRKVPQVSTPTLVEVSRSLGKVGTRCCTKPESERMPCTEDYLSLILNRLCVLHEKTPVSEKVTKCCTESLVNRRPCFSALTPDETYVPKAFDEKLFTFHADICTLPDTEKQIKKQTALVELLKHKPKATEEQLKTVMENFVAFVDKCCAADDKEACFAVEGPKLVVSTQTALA

B1: Fab 17 (Fab, V domains shown)
VH: QVQLVESGGGLVKPGGSLRLSCAASGFTFSDYYMSWIRQAPGKGLEWVSYISSSGSTIYYADSVKGRFTISRDNAKNSLYLQMNSLRAEDTAVYYCAREVYYYDSSGYYTYYFDYWGQGTLVTVSS
VL: DIQMTQSPSSLSASVGDRVTITCRASQSISSYLNWYQQKPGKAPKLLIYAASSLQSGVPSRFSGSGSGTDFTLTISSLQPEDAATYYCQQYDTFPLTFGGGTKVEIKR
notes: Human Fab from a phage library, expressed in E. coli and purified on Ni-NTA; also called 17-Fab; Clone #1 (Fab)
For the molecule B1, the binding result in assay [1] is recorded as “no binding”. Moreover, the EC50 in assay [2] came to 13.9 nM. For the same molecule, in assay [3], the Kd amounted to 61.4 nM, the koff amounted to 0.0044 s⁻¹ and the kon amounted to 72000 M⁻¹ s⁻¹. For the same molecule, in assay [4], the koff came to 0.00441 s⁻¹ and the kon is 71800 M⁻¹ s⁻¹.

B2: IgG1 17 (antibody, V domains shown)
VH: B1 VH
VL: B1 VL
notes: also called hIgG1 17; IgG 17
As to B2, the EC50 in assay [5] was found to be 0.14 nM. For the same molecule, in assay [6], the Kd was found to be 6.7 nM, the koff was determined as 0.0042 s⁻¹ and the kon came to 630000 M⁻¹ s⁻¹.

B3: IgG1 3G12 (antibody, V domains shown)
VH: B1 VH
VL: B1 VL with A83V, T85V, D92Y, F94S, P95R, L96I, G100Q, V104L
notes: Bivalent human IgG1 converted from Fab 3G12, expressed in Expi293 cells and purified on Protein A; also called hIgG1 3G12
As to B3, the EC50 in assay [5] is 0.24 nM. Besides, in assay [4], the kon was 516000 M⁻¹ s⁻¹. In assay [6], the Kd is 4.2 nM, the koff was 0.0021 s⁻¹ and the kon worked out at 520000 M⁻¹ s⁻¹.

B4: Fab 3G12 (Fab, V domains shown)
VH: B1 VH
VL: B1 VL with A83V, T85V, D92Y, F94S, P95R, L96I, G100Q, V104L
notes: Same heavy chain as Fab 17, different light chain; Expressed in E. coli and purified on Ni-NTA; also called 3G12-Fab; Clone #2 (Fab)
Consider B4, for which the binding result in assay [1] is “no binding”. Besides, the EC50 in assay [2] was found to be 2.6 nM. In assay [3], the Kd came to 35.5 nM, the koff came to 0.0018 s⁻¹ and the kon was found to be 52000 M⁻¹ s⁻¹. In assay [4], the koff is 0.00184 s⁻¹ and the kon amounted to 51900 M⁻¹ s⁻¹.

B5: scFv 17 (scFv)
scFv: DIQMTQSPSSLSASVGDRVTITCRASQSISSYLNWYQQKPGKAPKLLIYAASSLQSGVPSRFSGSGSGTDFTLTISSLQPEDAATYYCQQYDTFPLTFGGGTKVEIKGGGGSGGGGSGGGGSQVQLVESGGGLVKPGGSLRLSCAASGFTFSDYYMSWIRQAPGKGLEWVSYISSSGSTIYYADSVKGRFTISRDNAKNSLYLQMNSLRAEDTAVYYCAREVYYYDSSGYYTYYFDYWGQGTLVTVSS
notes: VL-(G4S)3-VH orientation; Expressed in E. coli; also called scFv format antibody 17; not shown: C-terminal FLAG tag used for detection; The protein was purified on Ni-NTA
Take B5: in assay [2], the EC50 worked out at 6.4 nM.

B6: scFv 3G12 (scFv)
scFv: B5 scFv with A83V, T85V, D92Y, F94S, P95R, L96I, G100Q, V104L
notes: VL-(G4S)3-VH orientation; Expressed in E. coli; also called scFv format antibody 3G12; not shown: C-terminal FLAG tag used for detection; The protein was purified on Ni-NTA
Regarding B6, in assay [2], the EC50 is 52.2 nM.

In general, EC50 refers to the concentration that produces a half-maximal response. In general, koff refers to the first-order rate constant of dissociation. As usually defined, the kon is the second-order rate constant of association.
